Source: PMC3988567 (RNA, 2014)
Values joined by “and” are separate entries in the source; they are usually repeats but may differ in a detail not shown here. Equal entries are not always repeated.

T1: Full-length Snu66 (S. cerevisiae, UniProt Q12420 1-587)
T1 sequence: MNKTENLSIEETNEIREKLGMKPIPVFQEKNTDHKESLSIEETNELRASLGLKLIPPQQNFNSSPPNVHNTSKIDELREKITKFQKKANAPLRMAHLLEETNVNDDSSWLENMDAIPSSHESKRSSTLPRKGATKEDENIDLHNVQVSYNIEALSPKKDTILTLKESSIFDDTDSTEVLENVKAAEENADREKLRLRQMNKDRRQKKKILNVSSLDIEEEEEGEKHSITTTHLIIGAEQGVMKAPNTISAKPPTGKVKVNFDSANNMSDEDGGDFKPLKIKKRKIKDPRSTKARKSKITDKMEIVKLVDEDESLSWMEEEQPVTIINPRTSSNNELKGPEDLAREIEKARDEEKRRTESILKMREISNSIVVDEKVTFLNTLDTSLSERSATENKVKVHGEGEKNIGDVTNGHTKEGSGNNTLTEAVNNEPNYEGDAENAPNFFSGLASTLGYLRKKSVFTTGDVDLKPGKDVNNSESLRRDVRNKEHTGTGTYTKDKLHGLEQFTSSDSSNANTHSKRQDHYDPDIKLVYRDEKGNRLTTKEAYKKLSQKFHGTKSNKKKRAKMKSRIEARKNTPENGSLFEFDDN


What was measured:
[1] = biological target: ubiquitin (UniProt P0CG48 1-76); test: ITC
[2] = biological target: T1, Full-length Snu66; test: pull-down

| Kd [1] | binding result [2] | Binder |
| --- | --- | --- |
| 2400 nM and 2300 nM |  | ZnF-UBP domain from USP5 (domain or fragment) KQEVQAWDGEVRQVSKHAFSLKQLDNPARIPPCGWKCSKCDMRENLWLNLTDGSILCGRRYFDGSGGNNHAVEHYRETGYPLAVKLGTITPDGADVYSYDEDDMVLDPSLAEHLSHFGIDMLKMQKTDK |
|  | binds | GST-Hub1 (natural protein) MIEVVVNDRLGKKVRVKCLAEDSVGDFKKVLSLQIGTQPNKIVLQKGGSVLKDHISLEDYEVHDQTNLELYYL |
